For this test, the target named is T1, human CD20 on Jurkat cells (human) (UniProt P11836).
T1 sequence: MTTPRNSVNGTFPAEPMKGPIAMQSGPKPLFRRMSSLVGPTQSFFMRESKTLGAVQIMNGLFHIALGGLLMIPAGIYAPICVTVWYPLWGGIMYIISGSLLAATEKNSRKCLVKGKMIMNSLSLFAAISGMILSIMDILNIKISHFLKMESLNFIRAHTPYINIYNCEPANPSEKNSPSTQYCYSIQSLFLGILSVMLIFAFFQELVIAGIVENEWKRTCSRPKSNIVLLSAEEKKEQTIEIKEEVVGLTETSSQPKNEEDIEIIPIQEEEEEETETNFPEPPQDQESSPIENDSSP
Put plainly: cell-based or functional assay.

casirivimab + imdevimab: the Max ADCP (%), MDM donor #1, Jurkat/hCD20 cells came to 15.5%; the Max ADCP (%), MDM donor #2, Jurkat/hCD20 cells is 15.1%; the Max cytotoxicity (%), ADCC, NK donor #1, Jurkat/hCD20 cells was 0.8%; the Max cytotoxicity (%), ADCC, NK donor #2, Jurkat/hCD20 cells amounted to 4.8%. The same substance showed a Max cytotoxicity (%), ADCC, NK donor #3, Jurkat/hCD20 cells of 0%.

Values taken from patent US20260069689A1.
